Data as given in US9175053B2, “Chemical preparation of ubiquitin thioesters and modifications thereof” (BEN-GURION UNIVERSITY OF THE NEGEV RESEARCH AND DEVELOPMENT …, priority 2010, dated 2015).
Entries after “also recorded” stand apart in the source; their conditions may differ.

Target: T1, recombinant human ubiquitin C-terminal hydrolase L3 (UCH-L3) (Homo sapiens, UniProt P15374)
T1 construct: purchased Aldrich
T1 sequence (P15374 1-230): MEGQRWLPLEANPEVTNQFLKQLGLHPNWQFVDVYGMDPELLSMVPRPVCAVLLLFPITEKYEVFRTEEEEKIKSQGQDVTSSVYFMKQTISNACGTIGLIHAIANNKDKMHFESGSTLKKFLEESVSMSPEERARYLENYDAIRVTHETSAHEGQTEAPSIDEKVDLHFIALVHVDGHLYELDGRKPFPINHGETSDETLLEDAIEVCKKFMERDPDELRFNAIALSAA
Assay: Enzymatic cleavage of isopeptide by ubiquitin C-terminal hydrolase UCH-L3
Type: biochemical
Settings: ~100 μM peptide, 12 hours at 37° C., Tris/NaCl/DTT buffer
Procedure: Purified peptide 8 was dissolved in 482 μL of assay buffer (50 mM Tris, 150 mM NaCl, 1 mM DTT, pH 7.5) to a final concentration of ˜100 μM and reacted with recombinant human ubiquitin C-terminal hydrolase L3 (UCH-L3, Aldrich). 10 μg of UCH-L3 in 15.5 μL of assay buffer containing 50 mM Tris, 150 mM NaCl, 12 mM DTT, pH 8.0 was incubated for 20 minutes at 25° C. To the reduced UCH-L3 was then added 8 in 187 μL. […] The reaction was analyzed using C-4 analytical RP-HPLC employing a gradient of 10-60% B for 30 minutes, in order to identify the hydrolysis.

“8: α-synuclein(1-17) model peptide ubiquitylated with synthetic Ub-SR via mercaptolysine, then desulfurized (Scheme 6) [Peptide 8]” was tested, and the “hydrolysis of the ubiquitylated peptide by UCH-L3 (RP-HPLC)” value was “UCH-L3 substrate; also recorded: complete hydrolysis”.
